# Molecular target: T1, CepR (His-tagged response regulator) (Streptomyces clavuligerus F613-1) (UniProt E2PWN2)
# T1 sequence: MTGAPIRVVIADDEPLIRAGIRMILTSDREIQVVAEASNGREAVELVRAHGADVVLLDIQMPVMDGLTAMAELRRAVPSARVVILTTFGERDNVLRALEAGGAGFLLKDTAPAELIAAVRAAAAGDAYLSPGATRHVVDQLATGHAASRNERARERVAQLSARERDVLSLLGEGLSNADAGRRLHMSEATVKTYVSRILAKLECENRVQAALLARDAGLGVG
# Test: EMSA
# Conditions: EMSA with 0.5-3.0 ug His-CepR and 1.0 ug poly(dI-dC); buffer, salt, pH and temperature not given (as in Fu et al. 2019; Zhang et al. 2015)
sequence,measurement,value
ATGGTCGTCCGATCGCCGCACGATCACTGATCAAGCCCTGCCCCACCCCGGCGCAAAAATTATCCGCCGGGTCATCACGCGTCATCACCACGTAATTCGGGACGGGAATACCCTGCCGCATTCCCGCCGGGGCGGCCCGGTGGGGCGGCTCCCCTCCCGCAGGCGCGGCGGTGCCCGTCGCACACTCAAGGAAGAGGGCAATGAACGA (double strand) [cefD-cmcI intergenic P1],binding,no binding
